Data on two molecules can be found in patent publication US20030049661A1 (JCR PHARMACEUTICALS, published 2003).

The target of assay [1] is endogenous Rim2 of PC12 cells. Briefly: cell-based or functional assay.
For assay [2], the target named is T1, constitutively active bovine Rab3A (Q81L), full-length, bait in pBTM116 (bovine, UniProt P11023 1-220).
T1 construct: also called active Rab3A (Q81L); not shown: fusion partner encoded by bait vector pBTM116
T1 sequence (looked up): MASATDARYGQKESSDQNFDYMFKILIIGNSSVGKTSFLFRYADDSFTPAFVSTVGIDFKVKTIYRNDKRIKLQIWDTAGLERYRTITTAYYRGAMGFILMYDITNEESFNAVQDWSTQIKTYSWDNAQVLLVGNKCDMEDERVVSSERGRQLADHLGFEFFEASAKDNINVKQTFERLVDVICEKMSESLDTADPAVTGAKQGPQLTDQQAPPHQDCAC
Briefly: yeast two-hybrid, liquid β-galactosidase assay.

As for “wild-type cAMP-GEFII (expressed in PC12 cells from pSRα) (from UniProt Q9EQZ6 1-1011)”, in assay [1], the 8-Br-cAMP (1 mM)-induced, Ca2+-dependent GH secretion turned out to be 34.9%.

B1: rat Rim1 zinc finger domain (amino acid residues 1-204), prey in pVP16 (other, UniProt Q9JIR4 1-204, looked up)
chain: MSSAVGPRGPRPPTVPPPMQELPDLSHLTEEERNIIMAVMDRQKEEEEKEEAMLKCVVRDMAKPAACKTPRNAESQPHQPPLNIFRCVCVPRKPSSEEGGPERDWRLHQQFESYKEQVRKIGEEARRYQGEHKDDAPTCGICHKTKFADGCGHLCSYCRTKFCARCGGRVSLRSNNEDKVVMWVCNLCRKQQEILTKSGAWFFG
notes: range 1-204; not shown: fusion partner encoded by prey vector pVP16
Take B1: in assay [2], the binding result is on record as “binds”.
